Data taken from patent US20120316324A1 (UCB, published 2012).

Columns and labels:
hIL13 [1] = target: T1, hIL13 (human, UniProt P35225 35-146, limits assumed); experiment: SPR Biacore 3000, construct captured, 20 nM hIL13 injected
T1 construct: also called human IL-13

hIL13 [2] = target: T1, hIL13; experiment: SPR (Biacore 3000), construct captured by anti human CH1 antibody on CM5 chip, hIL13 as analyte (single concentration 20 nM)
human serum albumin = target: T2, human serum albumin (human, UniProt P02768 25-609); experiment: SPR (Biacore 3000), construct captured by anti human CH1 antibody on CM5 chip, HSA as analyte
T2 construct: also called HSA; HumanSA

Kd (hIL13 [1]): ~0.1 nM | Kd (hIL13 [2]): 0.126 nM | koff (hIL13 [2]): 0.000177 s⁻¹ | kon (hIL13 [2]): 1.4e+06 M⁻¹ s⁻¹ | Kd (human serum albumin): 1.22 nM | koff (human serum albumin): 0.000311 s⁻¹ | kon (human serum albumin): 255000 M⁻¹ s⁻¹
B1: 645Fv-652Fab (L-3xG4S, H-3xG4S) (bispecific antibody, V domains shown)
VH: EVQLLESGGGLVQPGGSLRLSCAVSGIDLSNYAINWVRQAPGKGLEWIGIIWASGTTFYATWAKGRFTISRDSTTVYLQMNSLRAEDTAVYYCARTVPGYSTAPYFDLWGQGTLVTVSS
VL: DIVMTQSPSSVSASVGDRVTITCQSSPSVWSNFLSWYQQKPGKAPKLLIYEASKLTSGVPSRFKGSGSGTDFTLTISSLQPEDFATYYCGGGYSSISDTTFGGGTKVEIK
